Reference: paper PMC7069974, “Single molecule analysis reveals monomeric XPA bends DNA and undergoes episodic linear diffusion during damage search”
Numbering of substitutions follows the chain as printed.

B1: ND37 (dsDNA)
DNA 1: CCGAGTCATTCCTGCAGCGAGTCCATGGGAGTCAAAT
DNA 2: ATTTGACTCCCATGGACTCGCTGCAGGAATGACTCGG
modifications: 5'-phosphate top strand
B2: AAF37 (dsDNA)
DNA 1: B1 DNA 1
DNA 2: B1 DNA 2
modifications: dG-C8-AAF at G14 of top strand; 5'-phosphate top strand
B3: CPD37 (dsDNA)
DNA 1: B1 DNA 1 with G21T
DNA 2: B1 DNA 2 with C17A
modifications: CPD T<>T at T21-T22 of top strand; 5'-phosphate top strand

Key:
Test in all cases: EMSA; EMSA: 8 nM DNA, 20 mM HEPES pH 7.5, 150 mM NaCl, 5 mM DTT, 0.5 mg/ml BSA, 5% glycerol, 25 min at room temperature; gel 5% native, 0.5x TBE, 4 C. AFM: 100 nM DNA, 1-4 uM XPA (ND538)
Settings in all cases: protein: recombinant, tags: N-terminal His, label: 5'-6FAM on bottom strand, blunt
[1] = target: T1, His-flXPA-StrepII (human, UniProt P23025 1-273)
[2] = target: His-truncXPA-StrepII (human, UniProt P23025 98-239)
[3] = target: T1, His-flXPA-StrepII; remark: listed apart in the source

His-truncXPA-StrepII, sequence (P23025 98-239): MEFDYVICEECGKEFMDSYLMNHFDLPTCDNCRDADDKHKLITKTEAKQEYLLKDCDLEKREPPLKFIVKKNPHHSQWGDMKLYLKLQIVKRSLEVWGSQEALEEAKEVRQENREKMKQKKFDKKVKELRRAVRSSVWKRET
T1 sequence (P23025 whole entry): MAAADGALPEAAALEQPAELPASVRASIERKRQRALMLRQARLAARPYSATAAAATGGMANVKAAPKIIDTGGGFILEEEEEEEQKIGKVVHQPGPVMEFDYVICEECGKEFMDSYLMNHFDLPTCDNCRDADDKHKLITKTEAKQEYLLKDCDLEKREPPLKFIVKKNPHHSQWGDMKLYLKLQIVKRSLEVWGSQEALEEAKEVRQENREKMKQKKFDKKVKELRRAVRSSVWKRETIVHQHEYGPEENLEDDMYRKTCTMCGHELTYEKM

Row | Binder | Kd [1] | Kd [2] | binding signal [3]
1 | B1 | 253 ± 14 nM | 269 ± 22 nM | 
2 | B2 | 109 ± 5 nM | 189 ± 9 nM | 
3 | B3 |  | 269 ± 24 nM | ~44 fold specificity for CPD over non-damaged DNA (Kd ratio x 37 sites)
